Laboratory results taken from patent US20200024330A1.

Tests used:
Assay in all cases: cell-based or functional assay
[1] = target: HIV-1 Env of isolate MGRM-Chronic-B-024 (HIV-1)
[2] = target: HIV-1 Env of isolate MGRM-Chronic-B-023 (HIV-1)
[3] = target: HIV-1 Env of isolate MGRM-Chronic-B-017 (HIV-1)
[4] = target: HIV-1 92UG024 envelope glycoprotein (Env) on pseudovirus (HIV-1)
[5] = target: HIV-1 Env of isolate MGRM-Chronic-B-010 (HIV-1)
[6] = target: HIV-1 Env of isolate MGRM-AG-006 (HIV-1)
[7] = target: HIV-1 Env of isolate MGRM-AG-001 (HIV-1)
[8] = target: HIV-1 NL43 envelope glycoprotein (Env) on pseudovirus (HIV-1)
[9] = target: HIV-1 Env of isolate MGRM-Chronic-B-011 (HIV-1)
[10] = target: HIV-1 Env of isolate JRFL (HIV-1)
[11] = target: HIV-1 Env of isolate MGRM-AE-005 (HIV-1)
[12] = target: HIV-1 92BR020 envelope glycoprotein (Env) on pseudovirus (HIV-1)
[13] = target: HIV-1 Env of isolate MGRM-AE-007 (HIV-1)
[14] = target: HIV-1 Env of isolate MGRM-Chronic-B-012 (HIV-1)
[15] = target: HIV-1 Env of isolate MGRM-AG-009 (HIV-1)
[16] = target: HIV-1 Env of isolate MGRM-AE-006 (HIV-1)
[17] = target: HIV-1 Env of isolate MGRM-AG-012 (HIV-1)
[18] = target: HIV-1 Env of isolate MGRM-G-001 (HIV-1)
[19] = target: HIV-1 Env of isolate MGRM-AE-004 (HIV-1)
[20] = target: HIV-1 Env of isolate MGRM-AG-011 (HIV-1)
[21] = target: HIV-1 Env of isolate MGRM-AG-013 (HIV-1)
[22] = target: HIV-1 Env of isolate MGRM-AG-005 (HIV-1)
[23] = target: aMLV envelope (negative control pseudovirus)
[24] = target: HIV-1 Env of isolate MGRM-G-004 (HIV-1)
[25] = target: HIV-1 Env of isolate MGRM-AE-008 (HIV-1)
[26] = target: HIV-1 Env of isolate MGRM-G-009 (HIV-1)
[27] = target: HIV-1 Env of isolate MGRM-AG-008 (HIV-1)
[28] = target: HIV-1 Env of isolate MGRM-AG-003 (HIV-1)
[29] = target: HIV-1 Env of isolate MGRM-AG-002 (HIV-1)
[30] = target: HIV-1 Env of isolate MGRM-G-006 (HIV-1)
[31] = target: HIV-1 92TH021 envelope glycoprotein (Env) on pseudovirus (HIV-1)
[32] = target: HIV-1 92RW020 envelope glycoprotein (Env) on pseudovirus (HIV-1)
[33] = target: HIV-1 MGRM-C-009 Env (HIV-1)
[34] = target: HIV-1 Env of isolate MGRM-Chronic-B-020 (HIV-1)
[35] = target: HIV-1 Env of isolate MGRM-Chronic-B-018 (HIV-1)

## 2F5 (antibody)
[1]
  IC50 (µg/ml), pseudovirus neutralization: > 50 µg/mL
[2]
  IC50 (µg/ml), pseudovirus neutralization: 0.1 µg/mL
[3]
  IC50 (µg/ml), pseudovirus neutralization: > 50 µg/mL
[4]
  IC90 (pseudovirus neutralization): 34.4 µg/mL
[5]
  IC50 (µg/ml), pseudovirus neutralization: 0.96 µg/mL
[6]
  IC50 (µg/ml), pseudovirus neutralization: 0.85 µg/mL
[7]
  IC50 (µg/ml), pseudovirus neutralization: 0.75 µg/mL
[8]
  IC90 (pseudovirus neutralization): 19.3 µg/mL
[9]
  IC50 (µg/ml), pseudovirus neutralization: 0.81 µg/mL
[10]
  IC50 (µg/ml), pseudovirus neutralization: 3.54 µg/mL
[11]
  IC50 (µg/ml), pseudovirus neutralization: 0.14 µg/mL
[12]
  IC90 (pseudovirus neutralization): > 50 µg/mL
[13]
  IC50 (µg/ml), pseudovirus neutralization: 0.07 µg/mL
[14]
  IC50 (µg/ml), pseudovirus neutralization: 17.6 µg/mL
[15]
  IC50 (µg/ml), pseudovirus neutralization: 24.8 µg/mL
[16]
  IC50 (µg/ml), pseudovirus neutralization: 0.18 µg/mL
[17]
  IC50 (µg/ml), pseudovirus neutralization: 0.33 µg/mL
[18]
  IC50 (µg/ml), pseudovirus neutralization: 4.1 µg/mL
[19]
  IC50 (µg/ml), pseudovirus neutralization: 0.98 µg/mL
[20]
  IC50 (µg/ml), pseudovirus neutralization: > 50 µg/mL
[21]
  IC50 (µg/ml), pseudovirus neutralization: 1.79 µg/mL
[22]
  IC50 (µg/ml), pseudovirus neutralization: > 50 µg/mL
[23]
  IC50 (µg/ml), pseudovirus neutralization: > 50 µg/mL
[24]
  IC50 (µg/ml), pseudovirus neutralization: > 50 µg/mL
[25]
  IC50 (µg/ml), pseudovirus neutralization: > 50 µg/mL
[26]
  IC50 (µg/ml), pseudovirus neutralization: 7.21 µg/mL
[27]
  IC50 (µg/ml), pseudovirus neutralization: 0.54 µg/mL
[28]
  IC50 (µg/ml), pseudovirus neutralization: 0.14 µg/mL
[29]
  IC50 (µg/ml), pseudovirus neutralization: 0.54 µg/mL
[30]
  IC50 (µg/ml), pseudovirus neutralization: 1.33 µg/mL
[31]
  IC90 (pseudovirus neutralization): 18.8 µg/mL
[32]
  IC90 (pseudovirus neutralization): 27.7 µg/mL
[33]
  IC50: > 50 µg/mL
[34]
  IC50 (µg/ml), pseudovirus neutralization: 0.78 µg/mL
[35]
  IC50 (µg/ml), pseudovirus neutralization: 10.8 µg/mL

## 1495_C14 (PGC14) (antibody)
[1]
  IC50 (µg/ml), pseudovirus neutralization: > 50 µg/mL
[2]
  IC50 (µg/ml), pseudovirus neutralization: > 50 µg/mL
[3]
  IC50 (µg/ml), pseudovirus neutralization: > 50 µg/mL
[5]
  IC50 (µg/ml), pseudovirus neutralization: 27 µg/mL
[6]
  IC50 (µg/ml), pseudovirus neutralization: > 50 µg/mL
[7]
  IC50 (µg/ml), pseudovirus neutralization: > 50 µg/mL
[9]
  IC50 (µg/ml), pseudovirus neutralization: > 50 µg/mL
[10]
  IC50 (µg/ml), pseudovirus neutralization: > 50 µg/mL
[11]
  IC50 (µg/ml), pseudovirus neutralization: > 50 µg/mL
[13]
  IC50 (µg/ml), pseudovirus neutralization: > 50 µg/mL
[14]
  IC50 (µg/ml), pseudovirus neutralization: > 50 µg/mL
[15]
  IC50 (µg/ml), pseudovirus neutralization: > 50 µg/mL
[16]
  IC50 (µg/ml), pseudovirus neutralization: > 50 µg/mL
[17]
  IC50 (µg/ml), pseudovirus neutralization: > 50 µg/mL
[18]
  IC50 (µg/ml), pseudovirus neutralization: > 50 µg/mL
[19]
  IC50 (µg/ml), pseudovirus neutralization: > 50 µg/mL
[20]
  IC50 (µg/ml), pseudovirus neutralization: > 50 µg/mL
[21]
  IC50 (µg/ml), pseudovirus neutralization: > 50 µg/mL
[22]
  IC50 (µg/ml), pseudovirus neutralization: > 50 µg/mL
[23]
  IC50 (µg/ml), pseudovirus neutralization: > 50 µg/mL
[24]
  IC50 (µg/ml), pseudovirus neutralization: > 50 µg/mL
[25]
  IC50 (µg/ml), pseudovirus neutralization: > 50 µg/mL
[26]
  IC50 (µg/ml), pseudovirus neutralization: > 50 µg/mL
[27]
  IC50 (µg/ml), pseudovirus neutralization: 45 µg/mL
[28]
  IC50 (µg/ml), pseudovirus neutralization: > 50 µg/mL
[29]
  IC50 (µg/ml), pseudovirus neutralization: > 50 µg/mL
[30]
  IC50 (µg/ml), pseudovirus neutralization: > 50 µg/mL
[33]
  IC50: > 50 µg/mL
[34]
  IC50 (µg/ml), pseudovirus neutralization: > 50 µg/mL
[35]
  IC50 (µg/ml), pseudovirus neutralization: > 50 µg/mL
